Test results reported in patent publication US20160143256A1.

Biological target: mouse Mc4r (melanocortin 4 receptor), untagged expression construct (mouse) (UniProt P56450)
Assay: cell-based or functional assay

UniProt P56450, sequence (P56450 whole entry): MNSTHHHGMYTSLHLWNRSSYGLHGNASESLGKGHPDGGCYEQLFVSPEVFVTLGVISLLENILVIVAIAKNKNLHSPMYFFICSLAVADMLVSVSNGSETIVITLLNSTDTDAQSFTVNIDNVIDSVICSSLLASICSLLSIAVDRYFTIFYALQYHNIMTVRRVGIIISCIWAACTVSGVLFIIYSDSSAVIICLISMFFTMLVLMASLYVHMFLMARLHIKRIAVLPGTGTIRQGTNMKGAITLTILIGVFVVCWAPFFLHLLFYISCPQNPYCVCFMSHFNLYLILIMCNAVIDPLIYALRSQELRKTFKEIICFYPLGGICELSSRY

With “mouse Mrap2 (melanocortin 2 receptor accessory protein 2), untagged expression construct (from UniProt D3Z1Q2 1-207)” as the substance, how does the αMSH-induced increase above basal PKA activity (CRELuc, CHO cells co-transfected with Mc4r and Mrap2, 0-10 nM αMSH) read?
Its αMSH-induced increase above basal PKA activity (CRELuc, CHO cells co-transfected with Mc4r and Mrap2, 0-10 nM αMSH) is 5 fold.

With “Mrap2delE3 (mouse Mrap2 with exon 3 deleted) (from UniProt D3Z1Q2 1-55)” as the substance, how does the αMSH-induced increase above basal PKA activity (CRELuc, CHO cells co-transfected with Mc4r and Mrap2delE3) read?
Its αMSH-induced increase above basal PKA activity (CRELuc, CHO cells co-transfected with Mc4r and Mrap2delE3) is < 2 fold.

“α-melanocyte stimulating hormone (from UniProt P01189 138-150) (peptide)” was tested. Which αMSH-induced increase above basal PKA activity (CRELuc, CHO cells transfected with Mc4r alone) did it give?
The αMSH-induced increase above basal PKA activity (CRELuc, CHO cells transfected with Mc4r alone) was < 2 fold.
